From paper PMC13376213, “Systematic discovery of motif-based interactions of the auxiliary domains of USP family deubiquitinases” (Nature Communications, 2026) come the findings set out here.

One experiment concerns FLAG-USP20. In words: IP-MS of FLAG-USP20 and variants vs empty vector. Type of experiment: cell-based, human.
The next experiment deals with FLAG-USP33. In words: IP-MS of FLAG-USP33 and variants vs empty vector. In kind it is cell-based, human. The procedure: For transfection, 1x10^6 HEK293 cells were seeded in 10 cm dishes with DMEM, 10% FBS, 1% L-G (without antibiotic) medium, incubated at 37 °C, with 5 % CO2 for 24 h. Cells were transfected with a transfection mix containing […] of Opti-MEM (Thermo Fisher Scientific), 20 μL of PEI stock (1 mg/mL) and […] of the desired cDNA. For co-transfection, 2.5 μg of DNA of each plasmid was used. The mix was vortexed for 15 s and incubated at room temperature for 15–20 min. The transfection mix was added to the dish and gently mixed. Plates were incubated at 37 °C for 36–48 h before harvesting. For USP33 constructs, 5 μM Bortezomib (proteasome inhibitor) was added 4 hours before harvesting the cells.
FLAG fusion proteins were immunoprecipitated from HEK293 cells transfected with plasmids encoding the protein of interest using the anti-FLAG M2 affinity gel from Sigma-Aldrich. Cell pellets were lysed with 100–200 μL/per dish lysis buffer (Pierce RIPA buffer, 1X protease inhibitor (Roche), 50 unit/μL of Benzonase Nuclease) rotating at 4 °C for 30–45 min. […] The cell lysate was clarified by centrifugation at 17,000 x g, at 4 °C for 12 min, and the supernatant was transferred to a clean, pre-chilled low-binding Eppendorf tube. […] The IP samples were centrifuged at 6500 x g at 4 °C for 30 s. The supernatant containing the unbound proteins was transferred to a clean tube. The resin was washed three times with 500 μL of TBS, centrifuged at 6500 x g at 4 °C for 30 s. The bound FLAG fusion protein was eluted with 100 μL of 150 ng/μL 3X FLAG peptide (Sigma) in TBS and incubated in the cold room for 1 h or overnight. The tube was centrifuged at 6500 x g at 4 °C for 30 s; the eluted proteins were transferred to a clean tube. The eluted proteins were prepared for analysis by western blot or Mass Spectrometry.
Immunoprecipitation (IP) was carried out as described above; four technical replicates of each IP condition were performed, and the empty vector was used as a negative control. The eluted protein was processed following the Strap-micro protocol (Protifi). The IP elution containing 1–100 μg protein was 1:1 mixed with 2X lysis buffer (10% SDS, 100 mM TEAB pH 8.5). […] Samples were vortexed, mixed with 165 μL of 100 mM TEAB in 90% methanol, and passed through an S-Trap micro column at 4000 g for 30 s to trap the proteins. The column was washed with 150 μL of 100 mM TEAB in 90% methanol (at 4,000 x g for 30 seconds) three times. The S-Trap column was centrifuged again and transferred to a clean 2 mL tube for digestion with 20 μL of digestion buffer (1 μg trypsin per 10 μg sample in 50 mM TEAB), at 37 °C overnight in a thermomixer without shaking. The digested peptides were eluted with […] of 50 mM TEAB in water, […] of 0.2 % formic acid in water, and […] of 50 % acetonitrile in water, centrifuging at 4000 x g for 1 min each time. The three elutions were pooled in a low-binding tube, placed on dry ice until frozen, dried in a SpeedVac vacuum (Thermo Scientific), and proceeded with the LCMS analysis.
Eluted peptides were resuspended in water supplemented with 0.015% dodecyl maltoside and 0.1% formic acid and were injected on a Vanquish Neo UHPLC System operating in trap and elute mode coupled to an Orbitrap Astral Mass Spectrometer (Thermo Fisher Scientific). […] Eluted peptides were analyzed using data-independent acquisition mode on the mass spectrometer.
Peptides were searched against the Uniprot Swissprot Human database (released on 02/01/2023) supplemented with the USP20 and USP33 mutants using DiaNN (v1.9.0)[62] operating in library-free mode. Data filtering and statistical analysis were carried out in Python (v3.9.0) using the packages pandas, numpy, sklearn, scipy, rpy2, Plotnine, and Plotly and R (v4.4.3) using the package limma.
Protein groups identified with a single peptide or quantified in fewer than three replicates in at least 1 condition were filtered out. […]

Setting [1] is: IP-MS, FLAG-USP20 UBP mutant vs EV, comparison USP20_E55K_D59R/EV, Limma.
[2] abbreviates: IP-MS, FLAG-USP20 vs EV, comparison USP20_wt/EV, Limma.
Setting [3] is: Table S7b USP20 MS_and_motif, bait USP20.
[4] abbreviates: IP-MS, FLAG-USP20-ΔDUSP2 vs EV, comparison bh_2 Sample_Limma_ImpMedInt_USP20_DUSP2_domain/EV.

B1: MEIOC (protein, UniProt A2RUB1 1-952, looked up)
Meiosis-specific coiled-coil …: MEVRRGDTCPRPHPSGLREEGLEPKVAFPGGANRCWNLGADAGSRLTDVFGSVMLTGSASFYDCYTSQSEDNVDLRQTYTPFSSTEYSSSVDSSLFCAPWSTYGDDIKQPSNSQISIKNRIQTERNDYGSETDLYGLVSNILEEQDKSQPYFAEGTCSSNLKSVWPMNTSRFADHHDLLTETKRPIDTVISQQAFYSDESVSAMEKQYLRNSNLTPQQKIDELHHGFTGLDLEEQWMYPSRSDHSNCHNIQTNDTAKTTFQEYPLIKNCFTPQTGLSDIMKESGVDIYHYGRDRICTKGLEAPLQQKRAEMFLSQFNRYNENVDYCRYPEYVHPNKAKLNKCSNFSVQDSKKLANGTPETPTVEADTYTKLFQVKPANQKKMEETIPDQQNFTFPKTTPHLTEKQFAKEAVFTADFGLTSEYGLKPHTACPANDFANVTEKQQFAKPDPPHSEYFKSVNLLSNSATSSGGINLNRPTWMNVQTKNNTPIPYRNQGNLMKLNSHLSAASKGSNHSSDFPQLSSTNLTPNSNLFQKYCQENPSAFSSFDFSYSGAERIQSVNHIEGLTKPGEENLFKLVTDKKIKQPNGFCDNYSAQKYGIIENVNKHNFQAKPQSGHYDPEEGPKHLDGLSQNTYQDLLESQGHSNSHRTRGGDNSRVNRTQVSCFSNNYMMGDLRHNQCFQQLGSNGFPLRSTHPFGHSVVPLLDSYDLLSYDDLSHLYPYFNMMYGDNSFSGLMPTFGFQRPIKTRSGPASELHIRLEECCEQWRALEKERKKTELALAKNYPGKKVSSTNNTPVPRLTSNPSRVDRLIVDELRELARVVTLLGKMERLRSSLLHASISTALDRHLESIHIVQSRRKDEIVNASNRQRQGVPRCQDDRDVFALASAIKEMCVATRKTRTALWCALQMTLPKTASTADVVKPLQDTVNCEDKVHESINSSNPMNQRGETNKH
On to B1, for which the log2_FC was 4.277 with FLAG-USP20 (IP-MS, FLAG-USP20-ΔUBP vs EV, comparison bh_2 Sample_Limma_ImpMedInt_USP20_UBP_domain/EV); 4.883 with FLAG-USP20 (setting [1]); 5.071 in the experiment on FLAG-USP20 (setting [2]); 5.071 in the experiment with FLAG-USP20 (setting [3]).

B2: RTL8C (protein, UniProt O15255 1-206, looked up)
CAAX box protein 1: MGGGRGLLGRETLGPGGGCSGEGPLCYWPPPGSPPAPSLRASLPLEPPRCPLRSCSLPRSACLCSRNSAPGSCCRPWASLWSEPPPSPSSQPAPPMYIWTLSCAPAASWAPVTHWTDHPLPPLPSPLLPTRLPDDYIILPTDLRCHSHRHPSHPTDRLLLLVIWTHLGGIWAGHSPWTVIQTAGRPPRDLSPSARPISSPPPETSC
As to B2, the results for the log2_FC with FLAG-USP20 (setting [4]) and in the experiment with FLAG-USP20 (setting [1]) were 4.856 and 5.261, respectively.

B3: RCCD1 (protein, UniProt A6NED2 1-376, looked up)
RCC1 domain-containing …: MAEERPGAWFGFGFCGFGQELGSGRGRQVHSPSPLRAGVDICRVSASWSYTAFVTRGGRLELSGSASGAAGRCKDAWASEGLLAVLRAGPGPEALLQVWAAESALRGEPLWAQNVVPEAEGEDDPAGEAQAGRLPLLPCARAYVSPRAPFYRPLAPELRARQLELGAEHALLLDAAGQVFSWGGGRHGQLGHGTLEAELEPRLLEALQGLVMAEVAAGGWHSVCVSETGDIYIWGWNESGQLALPTRNLAEDGETVAREATELNEDGSQVKRTGGAEDGAPAPFIAVQPFPALLDLPMGSDAVKASCGSRHTAVVTRTGELYTWGWGKYGQLGHEDTTSLDRPRRVEYFVDKQLQVKAVTCGPWNTYVYAVEKGKS
Regarding B3, the log2_FC in the experiment with FLAG-USP20 (setting [4]) amounted to 4; in the experiment on FLAG-USP20 (setting [1]), 4.331.

B4: SNAP23 (protein, UniProt O00161 1-211, looked up)
Synaptosomal-associated …: MDNLSSEEIQQRAHQITDESLESTRRILGLAIESQDAGIKTITMLDEQKEQLNRIEEGLDQINKDMRETEKTLTELNKCCGLCVCPCNRTKNFESGKAYKTTWGDGGENSPCNVVSKQPGPVTNGQLQQPTTGAASGGYIKRITNDAREDEMEENLTQVGSILGNLKDMALNIGNEIDAQNPQIKRITDKADTNRDRIDIANARAKKLIDS
In the experiment on FLAG-USP20 (setting [4]), B4 registered a log2_FC of 6.953.

B5: CCDC85C (protein, UniProt A6NKD9 2-419, looked up)
Coiled-coil domain-containing …: AKPAATAAAASEELSQVPDEELLRWSKEELARRLRRAEGEKVGLMLEHGGLMRDVNRRLQQHLLEIRGLKDVNQRLQDDNQELRELCCFLDDDRQKGRKLAREWQRFGRHAAGAVWHEVARSQQKLRELEARQEALLRENLELKELVLLLDEERAALAATGAASGGGGGGGGAGSRSSIDSQASLSGPLSGGAPGAGARDVGDGSSTSSAGSGGSPDHHHHVPPPLLPPGPHKAPDGKAGATRRSLDDLSAPPHHRSIPNGLHDPSSTYIRQLESKVRLLEGDKLLAQQAGSGEFRTLRKGFSPYHSESQLASLPPSYQDSLQNGPACPAPELPSPPSAGYSPAGQKPEAVVHAMKVLEVHENLDRQLQDSCEEDLSEKEKAIVREMCNVVWRKLGDAASSKPSIRQHLSGNQFKGPL
With B5, the log2_FC amounted to 3.963 in the experiment on FLAG-USP20 (setting [1]), 4.015 in the experiment on FLAG-USP20 (setting [2]) and 4.015 in the experiment on FLAG-USP20 (setting [3]).

B6: ILVBL (protein, UniProt A1L0T0 1-632, looked up)
2-hydroxyacyl-CoA lyase 2: METPAAAAPAGSLFPSFLLLACGTLVAALLGAAHRLGLFYQLLHKVDKASVRHGGENVAAVLRAHGVRFIFTLVGGHISPLLVACEKLGIRVVDTRHEVTAVFAADAMARLSGTVGVAAVTAGPGLTNTVTAVKNAQMAQSPILLLGGAASTLLQNRGALQAVDQLSLFRPLCKFCVSVRRVRDIVPTLRAAMAAAQSGTPGPVFVELPVDVLYPYFMVQKEMVPAKPPKGLVGRVVSWYLENYLANLFAGAWEPQPEGPLPLDIPQASPQQVQRCVEILSRAKRPLMVLGSQALLTPTSADKLRAAVETLGVPCFLGGMARGLLGRNHPLHIRENRSAALKKADVIVLAGTVCDFRLSYGRVLSHSSKIIIVNRNREEMLLNSDIFWKPQEAVQGDVGSFVLKLVEGLQGQTWAPDWVEELREADRQKEQTFREKAAMPVAQHLNPVQVLQLVEETLPDNSILVVDGGDFVGTAAHLVQPRGPLRWLDPGAFGTLGVGAGFALGAKLCRPDAEVWCLFGDGAFGYSLIEFDTFVRHKIPVMALVGNDAGWTQISREQVPSLGSNVACGLAYTDYHKAAMGLGARGLLLSRENEDQVVKVLHDAQQQCRDGHPVVVNILIGRTDFRDGSIAV
As for B6, the log2_FC in the experiment on FLAG-USP33 (IP-MS, FLAG-USP33-ΔDUSP2 vs EV, comparison bh_2 Sample_Limma_ImpMedInt_USP33_DUSP2_domain/EV) is listed as 1.755; in the experiment with FLAG-USP33 (IP-MS, FLAG-USP33 vs EV, comparison USP33_wt/EV, Limma) it was 1.749; in the experiment with FLAG-USP33 (Table S7c USP33 MS_and_motif, bait USP33), 1.749.
